T1: rat NiG-D6 (rat, UniProt Q9JK11 763-975)
T1 construct: pET28 construct from bacteria
T1 sequence: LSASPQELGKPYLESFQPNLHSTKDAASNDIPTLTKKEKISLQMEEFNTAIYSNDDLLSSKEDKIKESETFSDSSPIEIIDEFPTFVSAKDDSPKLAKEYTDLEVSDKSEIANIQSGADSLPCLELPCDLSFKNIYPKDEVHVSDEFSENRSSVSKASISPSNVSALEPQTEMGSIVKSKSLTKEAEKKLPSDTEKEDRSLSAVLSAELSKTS

T2: Nogo-66 (rat, UniProt Q9JK11 1019-1083)
T2 construct: also called Nogo-66 fragment
T2 sequence: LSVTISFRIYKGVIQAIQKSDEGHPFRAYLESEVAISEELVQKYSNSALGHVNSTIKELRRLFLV

T3: human NiG (human, UniProt Q9NQC3 186-1004)
T3 construct: Expressed in E. coli from pET28a-hNiG; also called hNiG; recombinant human NIG; not shown: N-terminal His- and T7-tag from pET28a
T3 sequence: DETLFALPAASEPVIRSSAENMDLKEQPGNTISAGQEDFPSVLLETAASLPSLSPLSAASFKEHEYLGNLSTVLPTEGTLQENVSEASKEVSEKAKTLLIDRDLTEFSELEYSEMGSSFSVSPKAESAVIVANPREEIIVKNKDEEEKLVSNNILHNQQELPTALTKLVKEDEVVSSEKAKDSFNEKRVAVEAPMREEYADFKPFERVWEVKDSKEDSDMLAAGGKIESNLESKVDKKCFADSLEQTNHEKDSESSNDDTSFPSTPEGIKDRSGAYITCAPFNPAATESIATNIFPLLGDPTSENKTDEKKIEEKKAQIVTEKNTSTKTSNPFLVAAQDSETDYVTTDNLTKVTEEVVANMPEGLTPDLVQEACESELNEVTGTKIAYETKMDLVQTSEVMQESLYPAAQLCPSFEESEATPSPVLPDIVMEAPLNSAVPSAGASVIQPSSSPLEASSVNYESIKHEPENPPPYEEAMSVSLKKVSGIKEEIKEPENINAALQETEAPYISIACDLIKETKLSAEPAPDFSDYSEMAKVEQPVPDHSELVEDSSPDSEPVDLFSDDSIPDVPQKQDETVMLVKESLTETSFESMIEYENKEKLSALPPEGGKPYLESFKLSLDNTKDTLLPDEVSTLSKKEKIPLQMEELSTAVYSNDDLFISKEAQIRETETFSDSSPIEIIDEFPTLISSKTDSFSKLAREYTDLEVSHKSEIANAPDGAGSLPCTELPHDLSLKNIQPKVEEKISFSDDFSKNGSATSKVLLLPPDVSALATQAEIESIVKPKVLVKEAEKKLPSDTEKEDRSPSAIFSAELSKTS

T4: rat NiG (rat, UniProt Q9JK11 174-979)
T4 construct: also called recombinant rat NIG
T4 sequence: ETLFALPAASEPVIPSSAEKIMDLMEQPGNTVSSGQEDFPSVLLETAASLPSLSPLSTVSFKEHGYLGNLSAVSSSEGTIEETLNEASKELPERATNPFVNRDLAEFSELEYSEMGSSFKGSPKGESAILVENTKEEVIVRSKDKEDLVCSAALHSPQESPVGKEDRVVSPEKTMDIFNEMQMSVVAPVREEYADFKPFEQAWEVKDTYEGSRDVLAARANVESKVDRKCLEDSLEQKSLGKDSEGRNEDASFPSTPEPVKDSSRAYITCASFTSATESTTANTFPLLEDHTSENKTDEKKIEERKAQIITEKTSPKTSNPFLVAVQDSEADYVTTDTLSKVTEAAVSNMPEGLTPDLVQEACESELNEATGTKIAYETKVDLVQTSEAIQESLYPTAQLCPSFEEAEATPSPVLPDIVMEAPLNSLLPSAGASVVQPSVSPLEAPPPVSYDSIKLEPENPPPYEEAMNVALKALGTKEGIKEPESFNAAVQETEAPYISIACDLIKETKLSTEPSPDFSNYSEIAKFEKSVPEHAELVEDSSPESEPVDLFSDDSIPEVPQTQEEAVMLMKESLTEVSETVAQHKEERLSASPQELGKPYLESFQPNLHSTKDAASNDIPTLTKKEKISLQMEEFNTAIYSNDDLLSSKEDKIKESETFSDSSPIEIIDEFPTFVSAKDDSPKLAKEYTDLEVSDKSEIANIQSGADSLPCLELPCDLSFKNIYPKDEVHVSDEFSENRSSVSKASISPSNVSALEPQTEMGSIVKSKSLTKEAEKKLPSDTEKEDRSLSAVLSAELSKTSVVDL

T5: mouse NiG (mouse, UniProt Q99P72 188-974, limits assumed)
T5 construct: domain: NiG-exon3; also called mNiG-exon3; mouse NiG-exon3
T5 sequence (looked up): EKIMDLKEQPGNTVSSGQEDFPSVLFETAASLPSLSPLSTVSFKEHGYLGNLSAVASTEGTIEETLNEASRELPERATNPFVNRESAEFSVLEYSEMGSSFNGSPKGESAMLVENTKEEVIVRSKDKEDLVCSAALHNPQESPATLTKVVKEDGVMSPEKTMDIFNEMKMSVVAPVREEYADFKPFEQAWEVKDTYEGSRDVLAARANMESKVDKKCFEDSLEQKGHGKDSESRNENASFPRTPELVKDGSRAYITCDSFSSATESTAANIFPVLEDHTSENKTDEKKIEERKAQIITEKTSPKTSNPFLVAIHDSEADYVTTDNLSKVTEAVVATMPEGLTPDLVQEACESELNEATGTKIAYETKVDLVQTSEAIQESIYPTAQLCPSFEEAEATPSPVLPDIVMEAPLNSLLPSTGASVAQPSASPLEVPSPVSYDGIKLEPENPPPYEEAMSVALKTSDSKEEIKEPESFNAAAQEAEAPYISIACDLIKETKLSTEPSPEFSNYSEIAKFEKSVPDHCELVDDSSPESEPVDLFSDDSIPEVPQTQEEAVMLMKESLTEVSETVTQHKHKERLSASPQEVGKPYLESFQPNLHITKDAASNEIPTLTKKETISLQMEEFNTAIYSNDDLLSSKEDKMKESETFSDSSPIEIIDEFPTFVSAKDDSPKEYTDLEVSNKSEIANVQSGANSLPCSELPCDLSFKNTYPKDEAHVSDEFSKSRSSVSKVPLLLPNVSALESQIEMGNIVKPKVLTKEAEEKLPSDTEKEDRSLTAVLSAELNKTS

T6: rat NogoA-623-640 (rat)
T6 construct: Free peptide used for preincubation with 11C7; also called immunogenic peptide
T6 peptide: SYDSIKLEPENPPPYEEA


Legend:
[1] = molecular target: T1, rat NiG-D6; assay: ELISA, fragment coated on plate
Description: (§1) Greiner 96 well PS plates (#655161) are coated with 0.4-2 ug/ml Nogo protein fragments in PBS (100ul/well) covered and incubated 4 hours at room temperature. Plates are flicked and refilled with 200 ul/well blocking buffer (PBS+2% BSA), covered and incubated. 1 h at RT or overnight at 4° C., then washed 4 times with water and PBS. Different concentrations of mouse 11C7 mAb or 11C7 Fab are diluted in PBS+2% BSA (100 u/well), and incubated 2 h at RT or overnight at 4° C. Wash step is repeated and Goat anti-mouse IgG conjugated with horse radish peroxidase (HRP) at a dilution of 1:5000 (ICN #55550) in PBS/0.1% BSA/0.1% Nonidet 40 (100 uVwell) is added and incubated. 2h at RT or overnight at 4° C. and wash step is repeated. HRP reaction is started by adding 100 uvwell BM blue POD (Roche #1484281) and incubafed in the dark at RT for 15 minutes. H2SO4 50 ul/well 1 M is added to stop HRP substrate reaction and the optical density is determinated using a microplate reader (Packard Spectra Count) set to 450 nm.

[2] = molecular target: T2, Nogo-66; assay: ELISA, fragment coated on plate
Description: as §1

[3] = molecular target: T3, human NiG; assay: SPR (BIAcore 2000), NiG amine-coupled on CM5 chip, antibody injected
Description: (§2) The affinity of the mouse 11C7 mAb and of the 11C7 Fab are measured by surface plasmon resonance (SPR) using a BIAcore 2000 optical biosensor (Biacore, Uppsala, Sweden) according to the manufacture's instructions (see FIG. 2). Recombinant human, mouse, and rat NIG are covalently attached to three separate flow cells of a CM5 sensor chip using amine-coupling chemistry. Briefly; the carboxymethlyladed dextran matrix is activated by injecting 35 ul of a solution containing 0.025M NHS and 0.1M EDC. […] The deactivation of the remaining NHS-ester group is performed by injection of 35 ul of 1M ethanolamine hydrochloride (pH 8.5). The surface of the sensor chip is regenerated by injecting 5 ul 0.1M HCl. […] After each injection the sensor chip surface is regenerated with the injection of 10 ul 0.1M HCl without loss of binding activity on the surface. The kinetic constants, ka and kd and the affinity constants KA and KD are evaluated using the BIAevaluations 3.0 software supplied by the manufacturer.
(§3) Affinity measurement in BIAcore: The kinietc and the affinity binding constants of the mouse 11C7 mAb and the 11C7 derived monovalent Fab fragment to recombinat NogoA are measured in real time using surface plasmon resonance (SPR) technology (Biacore). For this analysis recombinant human, mouse and rat NIGs are coupled on three independent sensor chip surfaces and different concentrations of the antibodies are injected. Kinetic parameters of the binding interactions are derived from the sensorgrams by non-linear curve fitting. […] The lower affinity of the Fab fragment results from a decrease of both kinetic constants, association and dissociation (ka, kd).

[4] = molecular target: T4, rat NiG; assay: as above
Description: as §2, §3

[5] = molecular target: T5, mouse NiG; assay: as above
Description: as §2, §3

[6] = molecular target: T6, rat NogoA-623-640; assay: peptide competition of cell surface staining of living rat oligodendrocytes
Description: Immunocytochemistry: Optic nerve oligodendrocytes are prepared as described (Schwab, Caroni, 1988, Neuron). Three to five day-old cultures grown on poly-L-lysine coated coverslips are washed twice with PBS, fixed in 4% (w/v) paraformaldehyde (PFA), 5% (w/v) sucrose in PBS for 15 min at room temperature (RT) and non-specific binding is blocked with 10% (v/v) FCS. Cells were then incubated with mouse 11C7 (1:100). Secondary antibodies are goat-anti-mouse TRITC (Jackson ImmunoResearch Laboratories). For cell surface staining, two day-old rat optic nerve cultures are incubated with monoclonal antibody in medium for 25 min at RT. Secondary alkaline phosphatase conjugated antibodies (Milan Analytica, Lausanne) are used at 1:7,500 in 0.1 M maleic acid with 1% (w/v) blocking reagent (1 hr). The cultures are washed twice with maleic acid buffer, once with alkaline phosphatase buffer (0.1 M Tris-HCl pH 9.5, 0.1 M NaCl, 5 mM MgCl₂) and the staining is developed for 3 hrs at room temperature with 0.175 mg/ml BCIP (Sigma) and 0.338 mg/ml NBT (Sigma) in alkaline phosphatase buffer.
Cell surface staining is present on all major and small processes and on the cell body. Thus, the Nogo-A specific part of the molecule recognised by mouse 11C7 mAb is exposed to the extracellular space on the plasma membrane of oligodendrocytes.

[7] = molecular target: T3, human NiG; assay: SPR (BIAcore 2000), NiG amine-coupled on CM5 chip, Fab injected
Description: as §2, §3

binding result [1]	binding result [2]	Ka [3]	Kd [3]	koff [3]	kon [3]	Ka [4]	Kd [4]	koff [4]	kon [4]	Ka [5]	Kd [5]	koff [5]	kon [5]	binding result [6]	Ka [7]	Kd [7]	koff [7]	kon [7]	Binder
no binding (tested: 0.02 to 2.5 nM)	no binding (tested: 0.02 to 2.5 nM)	9.73e+09 M⁻¹	0.103 nM	4.6e-05 s⁻¹	448000 M⁻¹ s⁻¹	2.25e+09 M⁻¹	0.444 nM	0.000389 s⁻¹	876000 M⁻¹ s⁻¹	5.2e+09 M⁻¹	0.192 nM	0.000106 s⁻¹	552000 M⁻¹ s⁻¹	binds					mouse 11C7 mAb (antibody, V domains shown, also called mouse 11C7-IgG1; mAb 11C7) VH: EVKLLESGGGLVQPGGSLKLSCVVSGFDFRRNWMSWVRQAPGKGLEWIGEINPDSSKINYTPSLKDKFIISRDNAKNTLYLQVSTVRSEDTALYYCVRPVWMYAMDYWGQGTSVTVSS VL: not shown
no binding (tested: 0.025 to 25 nM)	no binding (tested: 0.025 to 25 nM)														1.4e+08 M⁻¹	7.14 nM	0.000528 s⁻¹	72900 M⁻¹ s⁻¹	11C7 Fab (Fab, V domains shown, also called 11C7 derived monovalent Fab fragment; Fab monovalent fragment) VH: EVKLLESGGGLVQPGGSLKLSCVVSGFDFRRNWMSWVRQAPGKGLEWIGEINPDSSKINYTPSLKDKFIISRDNAKNTLYLQVSTVRSEDTALYYCVRPVWMYAMDYWGQGTSVTVSS VL: not shown

Source: patent publication US20060183678A1 (Novartis, published 2006)
